These results are taken from patent US20190085033A1.

What is called Kd is the concentration at which binding is half-saturated. Read a high Kd as lower affinity.

Assay [1] has as its target CD4 on human CD4+ T cells (human) (UniProt P01730). Description: flow cytometry, trimer labelled with two fluorescent probes on human CD4+ T cells, 30 mins. In general terms: Flow cytometry measures light scatter and fluorescence of single cells or particles in a stream.
Assay [2] has as its target BG505-gp120 9MUTB (7MUT+N135R/Q328M) (HIV-1, strain BG505). Description: SPR, monomeric gp120. On the technique in general: In SPR one partner is held on a chip, and binding of the other changes the refractive index at the surface.
For another assay, the target named is BG505 SOSIP T332N gp140. Description: SPR. The following applies: Fab.

In assay [1], “BG505 SOSIP T332N gp140 (other; other documents disagree on this pair)” registered a percentage of cells bound (double-positive population) of 99.1%.

Substance PGT121 (antibody) showed a Kd in assay [2] of 1.5 nM.

In the assay with BG505 SOSIP T332N gp140, PGT121 Fab registered a Kd of 26 nM.
